This is an account of results in paper PMC5090066, “An affinity-directed protein missile system for targeted proteolysis” (Open Biology, 2016).

Experiment [1] addresses T1, GFP-VPS34 (endogenous VPS34 with a GFP tag knocked in at the N-terminus) (Aequorea victoria GFP (tag on human …, UniProt P42212 = GFP)).
T1 construct: GFP tag knocked in around the start codon of VPS34; donor construct DU52175; VPS34, class III phosphatidylinositol 3-kinase, human, expressed from its own locus; also called vacuolar protein sorting 34; source: endogenous, homozygous CRISPR/Cas9 knock-in HEK293 cells, in cell extract
The experiment can be described thus: pull-down; aGFP16 tethered to sepharose beads; cell extracts; pull-downs and flow-through extracts analysed. As to conditions: one partner purified.

Experiment [2] addresses T2, PAWS1-GFP (endogenous PAWS1/FAM83G with a GFP tag knocked in at the C-terminus) (Aequorea victoria GFP (tag on human …, UniProt P42212 = GFP)).
T2 construct: PAWS1 (FAM83G), human, expressed from its own locus; GFP tag knocked in around the stop codon of PAWS1; donor construct DU48585; also called protein associated with SMAD1; source: endogenous, homozygous CRISPR/Cas9 knock-in U2OS cells, in cell extract
The experiment is described as above. As to conditions: one partner purified.

B1: aGFP16, cameloid anti-GFP nanobody, tethered to sepharose beads (VHH)
VHH: QVQLVESGGRLVQAGDSLRLSCAASGRTFSTSAMAWFRQAPGREREFVAAITWTVGNTILGDSVKGRFTISRDRAKNTVDLQMDNLEPEDTAVYYCSARSRGYVLSVLRSVDSYDYWGQGTQVTVSG
notes: DU54238 is the cDNA in the pBABED/pRetroX vectors
For B1, the binding result in experiment [1] and in experiment [2] was “binds” in each case.
